Data: paper PMC3070541

Molecular target: 2A3-D NKT TCR βL95A, on 5KC hybridoma (mouse)
Assay: flow cytometry on cells

mouse CD1d tetramer loaded with α-galactosylceramide (αGC) (from UniProt P11609 22-336; P01887 21-119) (complex)
reduction of tetramer binding against the wild type: 10%
